{"source": "paper PMC6565627", "about": "“Therapeutic effects of a novel BAFF blocker on arthritis” (Signal Transduction and Targeted Therapy, 2019)", "molecules": {"B1": {"name": "TACI-Fc (Fc fusion, UniProt O14836 1-165, looked up)", "chain": "MSGLGRSRRGGRSRVDQEERFPQGLWTGVAMRSCPEEQYWDPLLGTCMSCKTICNHQSQRTCAAFCRSLSCRKEQGKFYDHLLRDCISCASICGQHPKQCAYFCENKLRSPVNLPPELRRQRSGEVENNSDNSGRYQGLEHRGSEASPALPGLKLSADQVALVYS"}}, "key": {"[1]": {"target": "T1, human B-cell activating factor (BAFF) (human, UniProt Q9Y275 134-285)", "T1 sequence (Q9Y275 134-285)": "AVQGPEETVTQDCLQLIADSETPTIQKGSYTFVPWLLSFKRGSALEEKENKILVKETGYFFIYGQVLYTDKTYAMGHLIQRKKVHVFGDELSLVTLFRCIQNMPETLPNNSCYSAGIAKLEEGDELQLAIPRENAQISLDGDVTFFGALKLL"}, "[2]": {"target": "T1, human B-cell activating factor (BAFF)", "experiment": "ELISA; equilibrium binding in solution: human BAFF at 25 pM mixed with antagonist (0.04 nM to 655.36 nM) overnight at room temperature; unbound BAFF detected by ELISA"}, "[3]": {"target": "T1, human B-cell activating factor (BAFF)", "experiment": "cell-based or functional assay"}}, "note": "Like-named read-outs stand apart in the source and are kept apart here.", "data": [{"molecule": "BAFF-Trap (variant B101): CRD2 of TACI, CRD of Br3 and Fc domain of human IgG1 (Fc fusion)", "values": [{"measurement": "IC50 of inhibition of Raji cell proliferation induced by BAFF (1 μg/ml) and anti-IgM, CCK-8, 72 h; blocks BAFF from its receptors TACI and Br3 on Raji cells", "setting": "[1]", "value": 50.6, "unit": "nM"}, {"measurement": "Kd", "setting": "[2]", "value": 3.62, "unit": "nM"}]}, {"molecule": "BAFF-Trap variant B102: CRD of Br3, CRD2 of TACI and Fc domain of human IgG1 (Fc fusion)", "values": [{"measurement": "IC50 of inhibition of Raji cell proliferation induced by BAFF (1 μg/ml) and anti-IgM, CCK-8, 72 h", "setting": "[1]", "value": 165, "unit": "nM"}]}, {"molecule": "B1", "values": [{"measurement": "IC50 of inhibition of Raji cell proliferation induced by BAFF (1 μg/ml) and anti-IgM, CCK-8, 72 h", "setting": "[3]", "value": 69.5, "unit": "nM"}]}]}
